Source: patent publication EP1878438A2

What was measured:
[1] = target: T1, GnRH receptor of rat pituitary membranes (rat) (UniProt P30969); experiment: radioligand displacement on rat pituitary membranes, equimolar concentrations
T1 sequence (looked up): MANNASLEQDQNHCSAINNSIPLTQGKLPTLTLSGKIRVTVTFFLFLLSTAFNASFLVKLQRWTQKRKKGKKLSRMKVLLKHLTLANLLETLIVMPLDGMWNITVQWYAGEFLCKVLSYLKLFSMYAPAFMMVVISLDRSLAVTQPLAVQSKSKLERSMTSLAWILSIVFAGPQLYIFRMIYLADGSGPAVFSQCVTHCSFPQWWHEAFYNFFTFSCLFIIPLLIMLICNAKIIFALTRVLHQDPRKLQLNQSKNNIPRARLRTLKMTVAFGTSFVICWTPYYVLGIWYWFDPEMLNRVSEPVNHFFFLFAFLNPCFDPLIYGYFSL

[2] = target: LH receptors on bovine granulosa cells and bovine small luteal cells (bovine) (UniProt Q28005); experiment: cell-based or functional assay
Chain of UniProt Q28005 (Q28005 27-701): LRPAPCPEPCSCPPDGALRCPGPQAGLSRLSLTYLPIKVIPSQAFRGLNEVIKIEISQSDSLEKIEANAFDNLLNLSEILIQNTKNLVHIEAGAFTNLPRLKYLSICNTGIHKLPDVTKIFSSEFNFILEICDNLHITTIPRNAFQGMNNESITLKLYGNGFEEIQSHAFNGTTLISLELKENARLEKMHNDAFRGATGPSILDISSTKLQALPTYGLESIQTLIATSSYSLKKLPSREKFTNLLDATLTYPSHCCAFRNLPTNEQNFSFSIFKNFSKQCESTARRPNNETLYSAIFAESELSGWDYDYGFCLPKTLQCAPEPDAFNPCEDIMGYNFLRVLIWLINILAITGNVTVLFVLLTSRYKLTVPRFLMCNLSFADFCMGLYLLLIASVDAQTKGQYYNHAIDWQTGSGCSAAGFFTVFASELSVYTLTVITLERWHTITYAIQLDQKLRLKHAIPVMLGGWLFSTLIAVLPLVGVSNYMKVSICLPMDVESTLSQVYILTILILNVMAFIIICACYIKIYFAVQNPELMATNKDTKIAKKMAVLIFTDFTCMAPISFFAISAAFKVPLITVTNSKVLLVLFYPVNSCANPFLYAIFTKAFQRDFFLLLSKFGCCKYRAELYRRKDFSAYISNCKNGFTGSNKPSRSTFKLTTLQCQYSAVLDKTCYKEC

| Substance | cpm displaced relative to native GnRH [1] | cell killing of bovine small luteal cells after 22 hr (Trypan Blue exclusion) (fold vs hecate alone) [2] |
| --- | --- | --- |
| D-Lys6GnRH (peptide) | 187% | – |
| hecate-bLH conjugate (peptide) | – | 2 |
